Assays:
HeLa Kyoto [1] = experiment: solubility in G1/S (NP-40 vs SDS abundance) (log2 ratio); higher = more soluble; settings: cell cycle stage: G1/S
HeLa Kyoto [2] = experiment: solubility change mitosis vs G1/S (difference of NP-40 vs SDS log2 ratios) (log2 ratio difference); higher = more soluble in mitosis
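Wherever solubility change mitosis vs G1/S (difference of NP-40 vs SDS log2 ratios) is given: synchronized HeLa Kyoto cells (double thymidine block for G1/S, nocodazole release for mitosis), protein amounts in NP-40 versus SDS lysates quantified by mass spectrometry, three biological replicates.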
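Wherever solubility in G1/S (NP-40 vs SDS abundance) is given: HeLa Kyoto cells arrested at G1/S by double thymidine block, proteins quantified by TMT10plex mass spectrometry in mild NP-40 versus SDS extracts, three biological replicates.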

## MSGGEVVCSGWLRKSPPEKKLKRYAWKRRWFVLRSGRLTGDPDVLEYYKNDHAKKPIRIIDLNLCQQVDAGLTFNKKEFENSYIFDINTIDRIFYLVADSEEEMNKWVRCICDICGFNPTEEDPVKPPGSSLQAPADLPLAINTAPPSTQADSSSATLPPPYQLINVPPHLETLGIQEDPQDYLLLINCQSKKPEPTRTHADSAKSTSSETDCNDNVPSHKNPASSQSKHGMNGFFQQQMIYDSPPSRAPSASVDSSLYNLPRSYSHDVLPKVSPSSTEADGELYVFNTPSGTSSVETQMRHVSISYDIPPTPGNTYQIPRTFPEGTLGQTSKLDTIPDIPPPRPPKPHPAHDRSPVETCSIPRTASDTDSSYCIPTAGMSPSRSNTISTVDLNKLRKDASSQDCYDIPRAFPSDRSSSLEGFHNHFKVKNVLTVGSVSSEELDENYVPMNPNSPPRQHSSSFTEPIQEANYVPMTPGTFDFSSFGMQVPPPAHMGFRSSPKTPPRRPVPVADCEPPPVDRNLKPDRKVKPAPLEIKPLPEWEELQAPVRSPITRSFARDSSRFPMSPRPDSVHSTTSSSDSHDSEENYVPMNPNLSSEDPNLFGSNSLDGGSSPMIKPKGDKQVEYLDLDLDSGKSTPPRKQKSSGSGSSVADERVDYVVVDQQKTLALKSTREAWTDGRQSTESETPAKSVK [GAB1]
HeLa Kyoto [1]
  solubility in G1/S (log2): 0.368
HeLa Kyoto [2]
  solubility change mitosis (log2): -0.296

## MSGGLAPSKSTVYVSNLPFSLTNNDLYRIFSKYGKVVKVTIMKDKDTRKSKGVAFILFLDKDSAQNCTRAINNKQLFGRVIKASIAIDNGRAAEFIRRRNYFDKSKCYECGESGHLSYACPKNMLGEREPPKKKEKKKKKKAPEPEEEIEEVEESEDEGEDPALDSLSQAIAFQQAKIEEEQKKWKPSSGVPSTSDDSRRPRIKKSTYFSDEEELSD [ZCRB1]
HeLa Kyoto [1]
  solubility in G1/S (log2): 0.0915
HeLa Kyoto [2]
  solubility change mitosis (log2): 0.122

## MSGSCAAPGPGSGSSPAACRFAHYFVLCGIDADSGLEPDELAGENFDQSPLRRTFKSKVLAHYPQNIEWNPFDQDAVNMLCMPKGLSFRTQTDNKDPQFHSFIITREDGSRTYGFVLTFYEEVTSKQICTAMQTLYQMHNAEHYSSVYASSSCSMDSLASSLDEGDTTSLLKLQRYNSYDISRDTLYVSKSICLITPLPFMQACKKFLIQLYKAVTSQQPPPLPLESYIHNILYEVPLPPPGRSLKFYGVYEPVICQRPGPSELPLSDYPLREAFELLGLENLVQVFTCVLLEMQILLYSQDYQRLMTVAEGITTLLFPFQWQHVYVPILPASLLHFLDAPVPYLMGLQSKEGTDRSKLELPQEANLCFVDIDNHFIELPEEFPQFPNKVDFIQELSEVLVQFGIPPEGSLHCSESTSKLKNMVLKDLVNDKKNGNVCTNNISMYELLKGNETIARLQALAKRTGVAVEKMDLSASLGEKDKDLKLHCEEAELRDYQLNVQLREVFANRFTQMFADYEAFVIQTAQDMESWLTNREQMQNFDKASFLSDQPEPYLPFLSRFIETQMFATFIDNKIMSQWEEKDPLLRVFDTRIDKIRLYNVRAPTLRTSIYQKCSTLKEAAQSIEQRLMKMDHTAIHPHLLDMKIGQGKYEQGFFPKLQSDVLATGPTSNNRWVSRSATAQRRKERLRQHSEHVGLDNDLREKYMQEARSLGKNLRQPKLSDLSPAVIAQTNCKFVEGLLKECRMKTKRMLVEKMGHEAVELGHGEANITGLEENTLIASLCDLLERIWSHGLQVKQGKSALWSHLIQFQDREEKQEHLAESPVALGPERRKSDSGVMLPTLRVSLIQDMRHIQNMSEIKTDVGRARAWIRLSLEKKLLSQHLKQLLSNQPLTKKLYKRYAFLRCEEEREQFLYHLLSLNAVDYFCFTSVFTTIMIPYRSVIIPIKKLSNAIITSNPWICVSGELGDTGVMQIPKNLLEMTFECQNLGKLTTVQIGHDNSGLLAKWLVDCVMVRNEITGHTYRFPCGRWLGKGIDDGSLERILIGELMTSASDEDLVKQCRTPPQQKSPTTARRLSITSLTGKNNKPNAGQIQEGIGEAVNNIVKHFHKPEKERGSLTVLLCGENGLVAALEQVFHHGFKSARIFHKNVFIWDFIEKVVAYFETTDQILDNEDDVLIQKSSCKTFCHYVNAINTAPRNIGKDGKFQILVCLGTRDRLLPQWIPLLAECPAITRMYEESALLRDRMTVNSLIRILQTIQDFTIVLEGSLIKGVDV [DENND5B]
HeLa Kyoto [1]
  solubility in G1/S (log2): -0.149
HeLa Kyoto [2]
  solubility change mitosis (log2): -0.179

## MSGSHTPACGPFSALTPSIWPQEILAKYTQKEESAEQPEFYYDEFGFRVYKEEGDEPGSSLLANSPLMEDAPQRLRWQAHLEFTHNHDVGDLTWDKIAVSLPRSEKLRSLVLAGIPHGMRPQLWMRLSGALQKKRNSELSYREIVKNSSNDETIAAKQIEKDLLRTMPSNACFASMGSIGVPRLRRVLRALAWLYPEIGYCQGTGMVAACLLLFLEEEDAFWMMSAIIEDLLPASYFSTTLLGVQTDQRVLRHLIVQYLPRLDKLLQEHDIELSLITLHWFLTAFASVVDIKLLLRIWDLFFYEGSRVLFQLTLGMLHLKEEELIQSENSASIFNTLSDIPSQMEDAELLLGVAMRLAGSLTDVAVETQRRKHLAYLIADQGQLLGAGTLTNLSQVVRRRTQRRKSTITALLFGEDDLEALKAKNIKQTELVADLREAILRVARHFQCTDPKNCSVELTPDYSMESHQRDHENYVACSRSHRRRAKALLDFERHDDDELGFRKNDIITIVSQKDEHCWVGELNGLRGWFPAKFVEVLDERSKEYSIAGDDSVTEGVTDLVRGTLCPALKALFEHGLKKPSLLGGACHPWLFIEEAAGREVERDFASVYSRLVLCKTFRLDEDGKVLTPEELLYRAVQSVNVTHDAVHAQMDVKLRSLICVGLNEQVLHLWLEVLCSSLPTVEKWYQPWSFLRSPGWVQIKCELRVLCCFAFSLSQDWELPAKREAQQPLKEGVRDMLVKHHLFSWDVDG [SGSM3]
HeLa Kyoto [1]
  solubility in G1/S (log2): -0.177
HeLa Kyoto [2]
  solubility change mitosis (log2): 0.011

## MSKQQPTQFINPETPGYVGFANLPNQVHRKSVKKGFEFTLMVVGESGLGKSTLINSLFLTDLYPERVIPGAAEKIERTVQIEASTVEIEERGVKLRLTVVDTPGYGDAINCRDCFKTIISYIDEQFERYLHDESGLNRRHIIDNRVHCCFYFISPFGHGLKPLDVAFMKAIHNKVNIVPVIAKADTLTLKERERLKKRILDEIEEHNIKIYHLPDAESDEDEDFKEQTRLLKASIPFSVVGSNQLIEAKGKKVRGRLYPWGVVEVENPEHNDFLKLRTMLITHMQDLQEVTQDLHYENFRSERLKRGGRKVENEDMNKDQILLEKEAELRRMQEMIARMQAQMQMQMQGGDGDGGALGHHV [SEPT2]
HeLa Kyoto [1]
  solubility in G1/S (log2): 0.276
HeLa Kyoto [2]
  solubility change mitosis (log2): -0.0125

## MSLPLTEEQRKKIEENRQKALARRAEKLLAEQHQRTSSGTSIAGNPFQAKQGPSQNFPRESCKPVSHGVIFKQQNLSSSSNADQRPHDSHSFQAKGIWKKPEEMPTACPGHSPRSQMALTGISPPLAQSPPEVPKQQLLSYELGQGHAQASPEIRFTPFANPTHKPLAKPKSSQETPAHSSGQPPRDAKLEAKTAKASPSGQNISYIHSSSESVTPRTEGRLQQKSGSSVQKGVNSQKGKCVRNGDRFQVLIGYNAELIAVFKTLPSKNYDPDTKTWNFSMNDYSALMKAAQSLPTVNLQPLEWAYGSSESPSTSSEGQAGLPSAPSLSFVKGRCMLISRAYFEADISYSQDLIALFKQMDSRRYDVKTRKWSFLLEEHSKLIAKVRCLPQVQLDPLPTTLTLAFASQLKKTSLSLTPDVPEADLSEVDPKLVSNLMPFQRAGVNFAIAKGGRLLLADDMGLGKTIQAICIAAFYRKEWPLLVVVPSSVRFTWEQAFLRWLPSLSPDCINVVVTGKDRLTAGLINIVSFDLLSKLEKQLKTPFKVVIIDESHFLKNSRTARCRAAMPVLKVAKRVILLSGTPAMSRPAELYTQIIAVKPTFFPQFHAFGLRYCDAKRMPWGWDYSGSSNLGELKLLLEEAVMLRRLKSDVLSQLPAKQRKIVVIAPGRINARTRAALDAAAKEMTTKDKTKQQQKDALILFFNRTAEAKIPSVIEYILDLLESGREKFLVFAHHKVVLDAITQELERKHVQHIRIDGSTSSAEREDLCQQFQLSERHAVAVLSITAANMGLTFSSADLVVFAELFWNPGVLIQAEDRVHRIGQTSSVGIHYLVAKGTADDYLWPLIQEKIKVLAEAGLSETNFSEMTESTDYLYKDPKQQKIYDLFQKSFEKEGSDMELLEAAESFDPGSASGTSGSSSQNMGDTLDESSLTASPQKKRRFEFFDNWDSFTSPL [SMARCAL1]
HeLa Kyoto [1]
  solubility in G1/S (log2): 0.0557
HeLa Kyoto [2]
  solubility change mitosis (log2): 0.0546

## MSLRRHIGNPEYLMKRIPQNPRYQHIKSRLDTGNSMTKYTEKLEEIKKNYRYKKDELFKRLKVTTFAQLIIQVASLSDQTLEVTAEEIQRLEDNDSAASDPDAETTARTNGKGNPGEQSPSPEQFINNAGAGDSSRSTLQSVISGVGELDLDKGPVKKAEPHTKDKPYPDCPFLLLDVRDRDSYQQCHIVGAYSYPIATLSRTMNPYSNDILEYKNAHGKIIILYDDDERLASQAATTMCERGFENLFMLSGGLKVLAQKFPEGLITGSLPASCQQALPPGSARKRSSPKGPPLPAENKWRFTPEDLKKIEYYLEEEQGPADHPSRLNQANSSGRESKVPGARSAQNLPGGGPASHSNPRSLSSGHLQGKPWK [CEP41]
HeLa Kyoto [1]
  solubility in G1/S (log2): 0.311
HeLa Kyoto [2]
  solubility change mitosis (log2): 0.231

## MSMTLGYWDIRGLAHAIRLLLEYTDSSYEEKKYTMGDAPDYDRSQWLNEKFKLGLDFPNLPYLIDGAHKITQSNAILCYIARKHNLCGETEEEKIRVDILENQAMDVSNQLARVCYSPDFEKLKPEYLEELPTMMQHFSQFLGKRPWFVGDKITFVDFLAYDVLDLHRIFEPNCLDAFPNLKDFISRFEGLEKISAYMKSSRFLPKPLYTRVAVWGNK [GSTM4]
HeLa Kyoto [1]
  solubility in G1/S (log2): -0.0869
HeLa Kyoto [2]
  solubility change mitosis (log2): -0.101

## MSNGYSTDENFRYLISCFRARVKMYIQVEPVLDYLTFLPAEVKEQIQRTVATSGNMQAVELLLSTLEKGVWHLGWTREFVEALRRTGSPLAARYMNPELTDLPSPSFENAHDEYLQLLNLLQPTLVDKLLVRDVLDKCMEEELLTIEDRNRIAAAENNGNESGVRELLKRIVQKENWFSAFLNVLRQTGNNELVQELTGSDCSESNAEIENLSQVDGPQVEEQLLSTTVQPNLEKEVWGMENNSSESSFADSSVVSESDTSLAEGSVSCLDESLGHNSNMGSDSGTMGSDSDEENVAARASPEPELQLRPYQMEVAQPALEGKNIIICLPTGSGKTRVAVYIAKDHLDKKKKASEPGKVIVLVNKVLLVEQLFRKEFQPFLKKWYRVIGLSGDTQLKISFPEVVKSCDIIISTAQILENSLLNLENGEDAGVQLSDFSLIIIDECHHTNKEAVYNNIMRHYLMQKLKNNRLKKENKPVIPLPQILGLTASPGVGGATKQAKAEEHILKLCANLDAFTIKTVKENLDQLKNQIQEPCKKFAIADATREDPFKEKLLEIMTRIQTYCQMSPMSDFGTQPYEQWAIQMEKKAAKEGNRKERVCAEHLRKYNEALQINDTIRMIDAYTHLETFYNEEKDKKFAVIEDDSDEGGDDEYCDGDEDEDDLKKPLKLDETDRFLMTLFFENNKMLKRLAENPEYENEKLTKLRNTIMEQYTRTEESARGIIFTKTRQSAYALSQWITENEKFAEVGVKAHHLIGAGHSSEFKPMTQNEQKEVISKFRTGKINLLIATTVAEEGLDIKECNIVIRYGLVTNEIAMVQARGRARADESTYVLVAHSGSGVIEHETVNDFREKMMYKAIHCVQNMKPEEYAHKILELQMQSIMEKKMKTKRNIAKHYKNNPSLITFLCKNCSVLACSGEDIHVIEKMHHVNMTPEFKELYIVRENKALQKKCADYQINGEIICKCGQAWGTMMVHKGLDLPCLKIRNFVVVFKNNSTKKQYKKWVELPITFPNLDYSECCLFSDED [IFIH1]
HeLa Kyoto [1]
  solubility in G1/S (log2): -0.109
HeLa Kyoto [2]
  solubility change mitosis (log2): -0.0235

From the supplement of paper PMC5998384
